According to patent US20070093443A1 (CATALYST BIOSCIENCES, published 2007):

T1: alpha-2 macroglobulin (in human plasma) (human, UniProt P01023 24-1474)
T1 construct: Not purified: the endogenous protein of the plasma
T1 sequence (looked up): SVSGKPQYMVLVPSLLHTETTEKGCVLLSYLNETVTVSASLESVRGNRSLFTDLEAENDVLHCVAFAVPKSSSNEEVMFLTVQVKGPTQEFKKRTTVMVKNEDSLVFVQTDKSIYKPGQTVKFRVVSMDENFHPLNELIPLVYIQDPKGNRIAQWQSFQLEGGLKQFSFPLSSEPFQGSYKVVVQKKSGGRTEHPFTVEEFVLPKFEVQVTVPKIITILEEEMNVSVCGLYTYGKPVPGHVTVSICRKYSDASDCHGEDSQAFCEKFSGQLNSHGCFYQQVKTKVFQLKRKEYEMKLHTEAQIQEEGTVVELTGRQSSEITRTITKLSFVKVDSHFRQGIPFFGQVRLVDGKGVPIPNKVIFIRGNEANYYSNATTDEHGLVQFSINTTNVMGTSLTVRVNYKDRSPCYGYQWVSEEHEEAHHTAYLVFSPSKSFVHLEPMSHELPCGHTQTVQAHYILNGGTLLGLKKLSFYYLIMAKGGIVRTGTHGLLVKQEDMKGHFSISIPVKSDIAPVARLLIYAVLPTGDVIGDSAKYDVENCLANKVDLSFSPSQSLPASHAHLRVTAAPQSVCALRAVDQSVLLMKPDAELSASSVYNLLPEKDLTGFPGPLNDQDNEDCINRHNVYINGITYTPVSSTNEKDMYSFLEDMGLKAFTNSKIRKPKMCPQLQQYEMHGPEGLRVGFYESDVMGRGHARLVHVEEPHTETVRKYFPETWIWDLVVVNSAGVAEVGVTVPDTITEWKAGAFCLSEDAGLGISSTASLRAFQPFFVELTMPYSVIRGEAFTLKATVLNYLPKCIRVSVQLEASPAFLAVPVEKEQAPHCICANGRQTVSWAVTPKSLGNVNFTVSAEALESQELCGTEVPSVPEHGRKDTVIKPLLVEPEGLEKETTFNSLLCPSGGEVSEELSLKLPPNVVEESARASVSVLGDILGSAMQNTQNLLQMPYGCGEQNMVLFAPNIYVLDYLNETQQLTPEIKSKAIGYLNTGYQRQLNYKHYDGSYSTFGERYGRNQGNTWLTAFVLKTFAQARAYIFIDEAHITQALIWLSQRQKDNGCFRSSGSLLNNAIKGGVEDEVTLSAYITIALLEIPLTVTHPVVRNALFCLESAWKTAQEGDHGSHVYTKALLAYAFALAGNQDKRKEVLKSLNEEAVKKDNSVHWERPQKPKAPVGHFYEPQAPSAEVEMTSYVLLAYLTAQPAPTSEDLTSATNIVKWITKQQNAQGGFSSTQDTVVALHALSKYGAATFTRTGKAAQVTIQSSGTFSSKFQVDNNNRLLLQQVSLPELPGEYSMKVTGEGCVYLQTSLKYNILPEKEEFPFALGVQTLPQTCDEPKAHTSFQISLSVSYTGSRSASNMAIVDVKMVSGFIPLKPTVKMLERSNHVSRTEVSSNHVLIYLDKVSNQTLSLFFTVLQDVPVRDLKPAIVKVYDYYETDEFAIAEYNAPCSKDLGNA


Target: T1, alpha-2 macroglobulin (in human plasma)
Assay: Ac-RQAR-AMC activity of protease after 5 min in human citrated plasma, with and without M84R ecotin
Description: In addition, the percent protease unbound by alpha-2 macroglobulin (a2M) also was determined. Inactivation of a protease by alpha-2 macroglobulin traps the protease in a complex where it is still able to turn over small fluorescent substrates, but unable to access large protein substrates. This property of alpha-2 macroglobulin complicates the assessment of a proteases activity in plasma. To determine the actual activity of the free, uncomplexed protease in plasma, a two step measurement is required. First, the sample's activity on fluorescent substrates is measured. […] The percent unbound by alpha-2 macroglobulin activity is the percentage of the plasma residual activity that is inhibited by the addition of the ecotin. Briefly, in a 0.2 mL PCR tube, 1 μL 10× protease was mixed with 9 μL human plasma in citrate (Innovative Research). A uninhibted control also was prepeared containing 1 μL 10× protease mixed with 9 μL PBST. The mixtures were incubated for 5 minutes at 37° C. The samples were diluted 250 fold in PBST and stored on ice. Two 50 μL aliquots for each sample were transferred to an opaque assay plate (Costar #3694) containing 2 μL PBST or 2 μL 520 nM M84R ecotin. The plates were incubated 10 minutes at room temperature. Five microliters 0.4 mM Ac-RQAR-AMC substrate was added and the fluorescence was measured over time with a SpectraMax M5 spectrafluorometer (Molecular Devices) set to read every 20 seconds for 30 minutes at 30° C. (Ex: 380 nm, EM: 450 nm, Cut-off: 435 nm). The percent unbound by alpha-2 macroglobulin was calculated with the following formula: (1-([(Protease in plasma/Protease in PBST)−(Protease in plasma+ecotin/Protease in PBST)]/(Protease in plasma/Protease in PBST)))*100.

Binder | % Unbound by a2M [%]
modified MT-SP1 CB483 (I41T/Y146D/G151L/Q175D/K224N) protease domain (enzyme) VVGGTDADEGEWPWQVSLHALGQGHTCGASLISPNWLVSAAHCYIDDRGFRYSDPTQWTAFLGLHDQSQRSAPGVQERRLKRIISHPFFNDFTFDYDIALLELEKPAEYSSMVRPICLPDASHVFPAGKAIWVTGWGHTQDGGTLALILQKGEIRVINQTTCENLLPQDITPRMMCVGFLSGGVDSCQGDSGGPLSSVEADGRIFQAGVVSWGDGCAQRNNPGVYTRLPLFRDWIKENTGV | 73
modified MT-SP1 CB482 (I41T/Y146D/G151L/Q175D/K224R) protease domain (enzyme) VVGGTDADEGEWPWQVSLHALGQGHTCGASLISPNWLVSAAHCYIDDRGFRYSDPTQWTAFLGLHDQSQRSAPGVQERRLKRIISHPFFNDFTFDYDIALLELEKPAEYSSMVRPICLPDASHVFPAGKAIWVTGWGHTQDGGTLALILQKGEIRVINQTTCENLLPQDITPRMMCVGFLSGGVDSCQGDSGGPLSSVEADGRIFQAGVVSWGDGCAQRNRPGVYTRLPLFRDWIKENTGV | 10
modified MT-SP1 CB422 (I41T/Y146E/Q175D/K224N) protease domain (enzyme) VVGGTDADEGEWPWQVSLHALGQGHTCGASLISPNWLVSAAHCYIDDRGFRYSDPTQWTAFLGLHDQSQRSAPGVQERRLKRIISHPFFNDFTFDYDIALLELEKPAEYSSMVRPICLPDASHVFPAGKAIWVTGWGHTQEGGTGALILQKGEIRVINQTTCENLLPQDITPRMMCVGFLSGGVDSCQGDSGGPLSSVEADGRIFQAGVVSWGDGCAQRNNPGVYTRLPLFRDWIKENTGV | 83
modified MT-SP1 CB478 (I41T/Y146D/Q175D/K224N) protease domain (enzyme) VVGGTDADEGEWPWQVSLHALGQGHTCGASLISPNWLVSAAHCYIDDRGFRYSDPTQWTAFLGLHDQSQRSAPGVQERRLKRIISHPFFNDFTFDYDIALLELEKPAEYSSMVRPICLPDASHVFPAGKAIWVTGWGHTQDGGTGALILQKGEIRVINQTTCENLLPQDITPRMMCVGFLSGGVDSCQGDSGGPLSSVEADGRIFQAGVVSWGDGCAQRNNPGVYTRLPLFRDWIKENTGV | 89
modified MT-SP1 CB476 (I41T/Y146D/Q175D/K224L) protease domain (enzyme) VVGGTDADEGEWPWQVSLHALGQGHTCGASLISPNWLVSAAHCYIDDRGFRYSDPTQWTAFLGLHDQSQRSAPGVQERRLKRIISHPFFNDFTFDYDIALLELEKPAEYSSMVRPICLPDASHVFPAGKAIWVTGWGHTQDGGTGALILQKGEIRVINQTTCENLLPQDITPRMMCVGFLSGGVDSCQGDSGGPLSSVEADGRIFQAGVVSWGDGCAQRNLPGVYTRLPLFRDWIKENTGV | 89
modified MT-SP1 CB480 (I41T/Y146D/G151L/Q175D/K224F) protease domain (enzyme) VVGGTDADEGEWPWQVSLHALGQGHTCGASLISPNWLVSAAHCYIDDRGFRYSDPTQWTAFLGLHDQSQRSAPGVQERRLKRIISHPFFNDFTFDYDIALLELEKPAEYSSMVRPICLPDASHVFPAGKAIWVTGWGHTQDGGTLALILQKGEIRVINQTTCENLLPQDITPRMMCVGFLSGGVDSCQGDSGGPLSSVEADGRIFQAGVVSWGDGCAQRNFPGVYTRLPLFRDWIKENTGV | 88
modified MT-SP1 CB481 (I41T/Y146D/G151L/Q175D/K224L) protease domain (enzyme) VVGGTDADEGEWPWQVSLHALGQGHTCGASLISPNWLVSAAHCYIDDRGFRYSDPTQWTAFLGLHDQSQRSAPGVQERRLKRIISHPFFNDFTFDYDIALLELEKPAEYSSMVRPICLPDASHVFPAGKAIWVTGWGHTQDGGTLALILQKGEIRVINQTTCENLLPQDITPRMMCVGFLSGGVDSCQGDSGGPLSSVEADGRIFQAGVVSWGDGCAQRNLPGVYTRLPLFRDWIKENTGV | 72
modified MT-SP1 CB421 (I41T/Y146D/Q175D/K224F) protease domain (enzyme) VVGGTDADEGEWPWQVSLHALGQGHTCGASLISPNWLVSAAHCYIDDRGFRYSDPTQWTAFLGLHDQSQRSAPGVQERRLKRIISHPFFNDFTFDYDIALLELEKPAEYSSMVRPICLPDASHVFPAGKAIWVTGWGHTQDGGTGALILQKGEIRVINQTTCENLLPQDITPRMMCVGFLSGGVDSCQGDSGGPLSSVEADGRIFQAGVVSWGDGCAQRNFPGVYTRLPLFRDWIKENTGV | 84
modified MT-SP1 CB477 (I41T/Y146D/Q175D/K224R) protease domain (enzyme) VVGGTDADEGEWPWQVSLHALGQGHTCGASLISPNWLVSAAHCYIDDRGFRYSDPTQWTAFLGLHDQSQRSAPGVQERRLKRIISHPFFNDFTFDYDIALLELEKPAEYSSMVRPICLPDASHVFPAGKAIWVTGWGHTQDGGTGALILQKGEIRVINQTTCENLLPQDITPRMMCVGFLSGGVDSCQGDSGGPLSSVEADGRIFQAGVVSWGDGCAQRNRPGVYTRLPLFRDWIKENTGV | 67

Second part, the binder after the results:

% Unbound by a2M [%] | Binder
44 | modified MT-SP1 CB486 (I41T/Y146E/Q175D/K224R) protease domain (enzyme) VVGGTDADEGEWPWQVSLHALGQGHTCGASLISPNWLVSAAHCYIDDRGFRYSDPTQWTAFLGLHDQSQRSAPGVQERRLKRIISHPFFNDFTFDYDIALLELEKPAEYSSMVRPICLPDASHVFPAGKAIWVTGWGHTQEGGTGALILQKGEIRVINQTTCENLLPQDITPRMMCVGFLSGGVDSCQGDSGGPLSSVEADGRIFQAGVVSWGDGCAQRNRPGVYTRLPLFRDWIKENTGV
85 | modified MT-SP1 CB488 (I41T/Y146E/G151L/Q175D/K224F) protease domain (enzyme) VVGGTDADEGEWPWQVSLHALGQGHTCGASLISPNWLVSAAHCYIDDRGFRYSDPTQWTAFLGLHDQSQRSAPGVQERRLKRIISHPFFNDFTFDYDIALLELEKPAEYSSMVRPICLPDASHVFPAGKAIWVTGWGHTQEGGTLALILQKGEIRVINQTTCENLLPQDITPRMMCVGFLSGGVDSCQGDSGGPLSSVEADGRIFQAGVVSWGDGCAQRNFPGVYTRLPLFRDWIKENTGV
53 | modified MT-SP1 CB487 (I41T/Y146E/G151L/Q175D/K224N) protease domain (enzyme) VVGGTDADEGEWPWQVSLHALGQGHTCGASLISPNWLVSAAHCYIDDRGFRYSDPTQWTAFLGLHDQSQRSAPGVQERRLKRIISHPFFNDFTFDYDIALLELEKPAEYSSMVRPICLPDASHVFPAGKAIWVTGWGHTQEGGTLALILQKGEIRVINQTTCENLLPQDITPRMMCVGFLSGGVDSCQGDSGGPLSSVEADGRIFQAGVVSWGDGCAQRNNPGVYTRLPLFRDWIKENTGV
82 | modified MT-SP1 CB485 (I41T/Y146E/Q175D/K224L) protease domain (enzyme) VVGGTDADEGEWPWQVSLHALGQGHTCGASLISPNWLVSAAHCYIDDRGFRYSDPTQWTAFLGLHDQSQRSAPGVQERRLKRIISHPFFNDFTFDYDIALLELEKPAEYSSMVRPICLPDASHVFPAGKAIWVTGWGHTQEGGTGALILQKGEIRVINQTTCENLLPQDITPRMMCVGFLSGGVDSCQGDSGGPLSSVEADGRIFQAGVVSWGDGCAQRNLPGVYTRLPLFRDWIKENTGV
58 | modified MT-SP1 CB489 (I41T/Y146E/G151L/Q175D/K224L) protease domain (enzyme) VVGGTDADEGEWPWQVSLHALGQGHTCGASLISPNWLVSAAHCYIDDRGFRYSDPTQWTAFLGLHDQSQRSAPGVQERRLKRIISHPFFNDFTFDYDIALLELEKPAEYSSMVRPICLPDASHVFPAGKAIWVTGWGHTQEGGTLALILQKGEIRVINQTTCENLLPQDITPRMMCVGFLSGGVDSCQGDSGGPLSSVEADGRIFQAGVVSWGDGCAQRNLPGVYTRLPLFRDWIKENTGV
